Ends that are not written are not given here.
T1: Mcl-1 (UniProt Q07820 1-350)
T1 chain: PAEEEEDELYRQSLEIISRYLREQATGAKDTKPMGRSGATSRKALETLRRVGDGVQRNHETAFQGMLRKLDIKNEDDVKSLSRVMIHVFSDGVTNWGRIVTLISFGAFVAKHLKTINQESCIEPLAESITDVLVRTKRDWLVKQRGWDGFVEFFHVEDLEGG

B1: Bid BH3 peptide (peptide)
peptide: SESQEDIIRNIARHLAQVGDSMDRSIPPGLVNGL
modifications: also: fluorescently labelled (label and position not shown)
B2: parathyroid hormone (PTH) (peptide)
peptide: SVSEIQLMHNLGKHLNSMERVEWLRKKLQDVHNF
modifications: also: fluorescently labelled (label and position not shown)

How the values were obtained:
361 [1] = assay: ITC; 10 °C
Mcl-1 [2] = molecular target: T1, Mcl-1; assay: ITC
29 [3] = assay: FP
411 [4] = assay: FP
361 [5] = assay: FP
Mcl-1 [6] = molecular target: T1, Mcl-1; assay: FP
[7] = molecular target: Hallucinated Bid binder (7 nM); assay: ITC
29 [8] = assay: ITC
411 [9] = assay: ITC
[10] = molecular target: best parametrically designed PTH binder; assay: split NanoBiT

Row | Binder | Kd 361 [1] [nM] | Kd (Mcl-1 [2]) [nM] | Kd 29 [3] [nM] | Kd 411 [4] [nM] | Kd 361 [5] [nM] | Kd (Mcl-1 [6]) [nM] | Kd [7] [nM] | Kd 29 [8] [nM] | Kd 411 [9] [nM] | Kd [10] [nM]
1 | B1 | 1200 | 770 | 40 | 23 | 490 | 106 | 25 | 180 | 410 | –
2 | B2 | – | – | – | – | – | – | – | – | – | > 1000
